Where a chain is given by its changes, count along the chain named. Names may count otherwise.

Test [1] addresses T1, rHuman IGF-1 sR, (IGF-1 sR), CF (human, UniProt P08069 31-932).
T1 construct: Bought from R&D Systems as a soluble receptor; also called insulin-like growth factor-1 soluble receptor
Briefly: ECL multispot (MSD) assay, antigen spotted on the plate, Fab in solution; blank spot of the same well 331.
Description: (§1) An 150 μl aliquot of 1% Bovine Serum Albumin (BSA) in Tris-buffered Saline Tween (TBST) was added to each well and allowed to incubate for 30 min at 20° C. followed by washing and tap drying to completely remove any residual solution. Subsequently, a 12.5 μl aliquot of 1% BSA TBST was added to each well followed by the addition of a 12.5 μl aliquot of a purified Fab. The plate was sealed and incubated for 1 hour at 20° C. with shaking
(§2) TAG-detection antibody at 25 μl was added to each well and allowed to incubate for 1 hour at 20° C. with shaking. Finally, 15 μl of Read Buffer P with Surfactant (Cat # R92PC-1, Meso Scale Discovery) was added to each well. The electrochemiluminescence was measured using a Sector Imager 2400 (Meso Scale Discovery). Data was analyzed by comparing the ECL signals for an antigen to the blank of each well. A signal to blank ratio of 4 or more was considered a “Hit” Fab.

The target in test [2] is T2, rHuman Erythropoietin R/Fc Chimera, CF (human, UniProt P19235 25-250).
T2 construct: Bought from R&D Systems; also called EPO R; EPO R/Fc; Fc part of the bought chimera not given
T2 sequence (looked up): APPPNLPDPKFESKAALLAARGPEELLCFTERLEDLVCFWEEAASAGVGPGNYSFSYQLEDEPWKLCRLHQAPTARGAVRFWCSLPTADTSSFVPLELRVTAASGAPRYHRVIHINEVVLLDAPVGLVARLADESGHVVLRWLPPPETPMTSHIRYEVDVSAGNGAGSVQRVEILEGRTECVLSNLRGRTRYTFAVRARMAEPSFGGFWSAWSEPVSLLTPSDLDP
The test is described as above.

The target of test [3] is T3, rHuman Notch-1/Fc Chimera, CF (human, UniProt P46531 19-526).
T3 construct: Bought from R&D Systems; Fc part of the bought chimera not given
The description is as above.

Test [4] concerns the target T4, Recombinant Human DLL4 (human, UniProt Q9NR61 27-524).
T4 construct: Bought from R&D Systems; also called delta-like protein 4; rHuman DLL4
Described as above.
Description: as §1, §2

Test [5] deals with T5, rHuman EGF R/Fc Chimera, CF (human, UniProt P00533 25-645).
T5 construct: Bought from R&D Systems; also called epidermal growth factor receptor; Fc part of the bought chimera not given
The description is as above.

Test [6] addresses T6, rHuman ErbB2/Fc Chimera, CF (human, UniProt P04626 23-652).
T6 construct: Bought from R&D Systems; also called human epidermal growth factor 2 receptor; Fc part of the bought chimera not given
The description is as above.

For test [7], the target named is T1, rHuman IGF-1 sR, (IGF-1 sR), CF. The test can be described thus: ECL multispot (MSD) assay, antigen spotted on the plate, Fab in solution; blank spot of the same well 407.
Description: as §1, §2
Test [8] concerns the target T7, rHuman CD44/Fc Chimera, CF (human, UniProt P16070 21-220).
T7 construct: Bought from R&D Systems; Fc part of the bought chimera not given
Described as above.

In test [9] the target is T2, rHuman Erythropoietin R/Fc Chimera, CF. The test is described as above.
Description: as §1, §2
Test [10] has as its target T3, rHuman Notch-1/Fc Chimera, CF. The test is described as above.
Description: as §1, §2
Test [11] addresses T4, Recombinant Human DLL4. The description is as above.
Description: as §1, §2
For test [12], the target named is T8, rHuman HGF R/c-MET/Fc Chimera, CF (human, UniProt P08581 25-932).
T8 construct: Bought from R&D Systems; also called HGF R/Fc; hepatocyte growth factor receptor; Fc part of the bought chimera not given
T8 sequence (P08581 25-932, change not shown): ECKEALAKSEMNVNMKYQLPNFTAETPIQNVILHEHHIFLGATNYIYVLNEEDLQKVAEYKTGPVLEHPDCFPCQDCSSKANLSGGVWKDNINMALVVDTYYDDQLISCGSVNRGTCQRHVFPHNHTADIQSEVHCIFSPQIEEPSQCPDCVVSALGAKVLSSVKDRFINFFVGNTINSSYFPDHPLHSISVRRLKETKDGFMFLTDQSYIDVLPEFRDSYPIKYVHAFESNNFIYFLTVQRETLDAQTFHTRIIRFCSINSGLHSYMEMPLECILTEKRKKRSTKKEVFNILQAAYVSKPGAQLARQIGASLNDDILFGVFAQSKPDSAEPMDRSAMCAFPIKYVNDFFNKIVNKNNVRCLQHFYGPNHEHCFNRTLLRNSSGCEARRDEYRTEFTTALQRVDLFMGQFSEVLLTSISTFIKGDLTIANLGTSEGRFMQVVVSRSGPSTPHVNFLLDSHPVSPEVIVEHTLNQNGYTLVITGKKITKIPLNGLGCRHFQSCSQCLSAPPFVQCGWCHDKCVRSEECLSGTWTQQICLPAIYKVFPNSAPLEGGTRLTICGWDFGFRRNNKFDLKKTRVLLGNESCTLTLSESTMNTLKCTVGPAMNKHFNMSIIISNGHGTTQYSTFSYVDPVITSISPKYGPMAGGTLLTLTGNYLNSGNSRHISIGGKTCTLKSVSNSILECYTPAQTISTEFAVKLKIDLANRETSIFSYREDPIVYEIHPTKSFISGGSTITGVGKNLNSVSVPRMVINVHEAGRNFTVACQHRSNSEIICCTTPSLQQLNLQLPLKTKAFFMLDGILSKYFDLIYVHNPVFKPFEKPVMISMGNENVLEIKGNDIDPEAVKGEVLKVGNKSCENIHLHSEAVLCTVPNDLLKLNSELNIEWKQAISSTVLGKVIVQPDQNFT
Described as above.

For test [13], the target named is T9, rHuman P-Cadherin/Fc Chimera, CF (human, UniProt P22223 108-654).
T9 construct: Bought from R&D Systems; Fc part of the bought chimera not given
Described as above.

The target in test [14] is T5, rHuman EGF R/Fc Chimera, CF. The test is described as above.
Description: as §1, §2
Test [15] has as its target T6, rHuman ErbB2/Fc Chimera, CF. Described as above.
Description: as §1, §2
The target in test [16] is T1, rHuman IGF-1 sR, (IGF-1 sR), CF. Briefly: ECL multispot (MSD) assay, antigen spotted on the plate, Fab in solution; blank spot of the same well 231.
Description: as §1, §2
For test [17], the target named is T7, rHuman CD44/Fc Chimera, CF. The description is as above.
Description: as §1, §2
Test [18] has as its target T2, rHuman Erythropoietin R/Fc Chimera, CF. The test is described as above.
Description: as §1, §2
Test [19] has as its target T3, rHuman Notch-1/Fc Chimera, CF. The test is described as above.
Description: as §1, §2
The target of test [20] is T4, Recombinant Human DLL4. Described as above.
Description: as §1, §2
Test [21] deals with T8, rHuman HGF R/c-MET/Fc Chimera, CF. The test is described as above.
Description: as §1, §2
Test [22] deals with T9, rHuman P-Cadherin/Fc Chimera, CF. The description is as above.
Description: as §1, §2
Test [23] has as its target T5, rHuman EGF R/Fc Chimera, CF. Described as above.
Description: as §1, §2
The target of test [24] is T6, rHuman ErbB2/Fc Chimera, CF. The description is as above.
Description: as §1, §2
The target in test [25] is T1, rHuman IGF-1 sR, (IGF-1 sR), CF. Briefly: ECL multispot (MSD) assay, antigen spotted on the plate, Fab in solution; blank spot of the same well 284.
Description: as §1, §2
Test [26] addresses T7, rHuman CD44/Fc Chimera, CF. The description is as above.
Description: as §1, §2
Test [27] addresses T3, rHuman Notch-1/Fc Chimera, CF. The test is described as above.
Description: as §1, §2
For test [28], the target named is T4, Recombinant Human DLL4. Described as above.
Description: as §1, §2
For test [29], the target named is T8, rHuman HGF R/c-MET/Fc Chimera, CF. Described as above.
Description: as §1, §2
Test [30] concerns the target T9, rHuman P-Cadherin/Fc Chimera, CF. The description is as above.
Description: as §1, §2
Test [31] has as its target T5, rHuman EGF R/Fc Chimera, CF. Described as above.
Description: as §1, §2
The target in test [32] is T6, rHuman ErbB2/Fc Chimera, CF. The description is as above.
Description: as §1, §2

B1: Fab VH1-46_IGHD6-6*01_IGHJ1*01 S102A/S103P/S104F/H111F (APFF) & L6_IGKJ1*01 S31E (Fab, V domains shown)
VH: QVQLVQSGAEVKKPGASVKVSCKASGYTFTSYYMHWVRQAPGQGLEWMGIINPSGGSTSYAQKFQGRVTMTRDTSTSTVYMELSSLRSEDTAVYYCAREEYAPFSAEYFQFWGQGTLVTVSS
VL: EIVLTQSPATLSLSPGERATLSCRASQSVSEYLAWYQQKPGQAPRLLIYDASNRATGIPARFSGSGSGTDFTLTISSLEPEDFAVYYCQQRSNWPPWTFGQGTKVEIKR
notes: Tested as an E. coli Fab; The heavy chain carries CH1 with His6 and Flag tags from plasmid A, the light chain a kappa CL from plasmid C; also called APFF / S31E; H:APFF & L6_IGKJ1*01 S31E
For B1, the ECL signal in test [1] was 367; in test [2] it was 441; in [3], 460; in the test with Recombinant Human DLL4 [4] it was 171000; in test [5] it was 297; in test [6] it was 313.

B2: Fab VH1-46_IGHD6-6*01_IGHJ1*01 S102A/S103P/S104F/H111F (APFF) & L6_IGKJ1*01 S31Q (Fab, V domains shown)
VH: B1 VH
VL: B1 VL with E31Q
notes: Tested as an E. coli Fab; The heavy chain carries CH1 with His6 and Flag tags from plasmid A, the light chain a kappa CL from plasmid C; also called APFF / S31Q; H:APFF & L6_IGKJ1*01 S31Q
Turning to B2, the ECL signal in [7] worked out at 415; in [8], 438; in test [9], 548; in [10] it was 383; with Recombinant Human DLL4 [11], 165000; in test [12], 329. Also, the results for the ECL signal in [13], in test [14] and in [15] were 379, 390 and 392, respectively.

B3: Fab VH1-46_IGHD6-6*01_IGHJ1*01 S102A/S103P/S104F/H111F (APFF) & L6_IGKJ1*01 S31G (Fab, V domains shown)
VH: B1 VH
VL: B1 VL with E31G
notes: Tested as an E. coli Fab; The heavy chain carries CH1 with His6 and Flag tags from plasmid A, the light chain a kappa CL from plasmid C; also called APFF / S31G; H:APFF & L6_IGKJ1*01 S31G
Turning to B3, the ECL signal came to 301 in test [16]; 381 in [17]; 414 in [18]; 426 in [19]; 65500 with Recombinant Human DLL4 [20]; 378 in test [21]. Also, the values for the ECL signal in test [22], in test [23] and in [24] were 384, 391 and 311, respectively.

B4: Fab VH1-46_IGHD6-6*01_IGHJ1*01 S102A/S103P/S104F/H111F (APFF) & L6_IGKJ1*01 S31Y (Fab, V domains shown)
VH: B1 VH
VL: B1 VL with E31Y
notes: Tested as an E. coli Fab; The heavy chain carries CH1 with His6 and Flag tags from plasmid A, the light chain a kappa CL from plasmid C; also called APFF / S31Y; H:APFF & L6_IGKJ1*01 S31Y
Regarding B4, the ECL signal is 293 in test [25]; 445 in [26]; 351 in test [27]; 188000 with Recombinant Human DLL4 [28]; 197 in test [29]; 361 in test [30]. Moreover, the figures for the ECL signal in test [31] and in test [32] were 320 and 236, respectively.

(Values after patent publication US20120316071A1 (published 2012).)
